Data set [1] deals with the molecule itself. The data set is described as follows: SEC. Background: In gel filtration, larger molecules generally elute earlier.
Data set [2] deals with the molecule itself. Put plainly: SEC. This is another data set of the same source.
Data set [3] deals with the molecule itself. The data set is described as follows: SEC. The source holds these as a separate data set.
The data set “SEC-MALS” deals with the molecule itself. The data set is described as follows: SEC-MALS.
Data set [4] concerns the molecule itself. Put plainly: NMR chemical shift comparison of monomer and dimer.

Positions count from the first letter of the chain named. In names and notes the source's numbering stands. Like-named read-outs stand apart in the source and are kept apart here.

B1: Fis1ΔTM-C79S/C87S (domain or fragment, Saccharomyces cerevisiae)
chain: MMTKVDFWPTLKDAYEPLYPQQLEILRQQVVSEGGPTATIQSRFNYAWGLIKSTDVNDERLGVKILTDIYKEAESRRRESLYYLTIGSYKLGEYSMAKRYVDTLFEHERNNKQVGALKSMVEDKIQKE
With B1, in the data set “SEC [1]”, the binding result is reported as “binds”.

B2: Fis1ΔTM (1-127), wild type cytoplasmic domain of yeast Fis1 (domain or fragment, Saccharomyces cerevisiae)
chain: B1 chain with S80C, S88C
A word on the Kd: it is the constant that tells how readily two partners part at equilibrium. Low values mean tighter binding, high ones weaker binding. What is called stoichiometry N is a count of units in the complex or per binding partner. As for B2, the dissociation constant (Kd) in “SEC [2]” came to 0.24 ± 0.08 µM; in “SEC [3]” it was 15 ± 3 µM. The “stoichiometry N” value in the data set “SEC-MALS” turned out to be 2.

B3: Fis1ΔTM-3 (E78D/I85T/Y88H) (domain or fragment, Saccharomyces cerevisiae)
chain: B1 chain with E79D, S80C, I86T, S88C, Y89H
With B3, the binding result in the data set “SEC [1]” is “binds”.

B4: Fis1ΔTM-A72P (domain or fragment, Saccharomyces cerevisiae)
chain: B1 chain with A73P, S80C, S88C
In the case of B4, the Kd in the data set “SEC [3]” is at least 3000 µM.

B5: Fis1ΔTM (1-126) without a linker or affinity tag, for NMR (domain or fragment, Saccharomyces cerevisiae, UniProt P40515 1-126, looked up)
chain: MTKVDFWPTLKDAYEPLYPQQLEILRQQVVSEGGPTATIQSRFNYAWGLIKSTDVNDERLGVKILTDIYKEAESRRRECLYYLTIGCYKLGEYSMAKRYVDTLFEHERNNKQVGALKSMVEDKIQK
Turning to B5, the binding result in data set [4] is “binds”.

For the origin of these results see PMC3456991 (Journal of molecular biology, 2012).
